Experimental data: PMC3057058 (Virology, 2011)

B1: simian virus 40 (SV40) wild-type VP1, in virus-like particles (natural protein)
chain: APTKRKGSCPGAAPKKPKEPVQVPKLVIKGGIEVLGVKTGVDSFTEVECFLNPQMGNPDEHQKGLSKSLAAEKQFTDDSPDKEQLPCYSVARIPLPNINEDLTCGNILMWEAVTVKTEVIGVTAMLNLHSGTQKTHENGAGKPIQGSNFHFFAVGGEPLELQGVLANYRTKYPAQTVTPKNATVDSQQMNTDHKAVLDKDNAYPVECWVPDPSKNENTRYFGTYTGGENVPPVLHITNTATTVLLDEQGVGPLCKADSLYVSAVDICGLFTNTSGTQQWKGLPRYFKITLRKRSVKNPYPISFLLSDLINRRTQRVDGQPMIGMSSQVEEVRVYEDTEELPGDPDMIRYIDEFGQTTTRMQ

Assays:
[1] = biological target: avian polyomavirus (APV) major capsid protein VP1 (avian polyomavirus (APV), strain BFDV-5) (UniProt P13891); assay: negative-stain electron microscopy
[2] = biological target: avian polyomavirus (APV) major capsid protein VP1 (avian polyomavirus (APV), strain BFDV-5) (UniProt P13891); assay: cryo-EM structure
cryo-EM structure = biological target: the molecule itself; assay: cryo-EM structure

| Molecule | stoichiometry N [1] | stoichiometry N [2] | binding result (cryo-EM structure) |
| --- | --- | --- | --- |
| avian polyomavirus (APV) major capsid protein VP1 (from UniProt P13891 1-343) (natural protein) | 5 | 5 | – |
| B1 | – | – | binds |
